# According to PMC6256756:
# B1: FtsZ (BcFtsZ) (Burkholderia cenocepacia J2315) (protein)
# chain: MEFEMLETETNGTIIKVVGVGGAGGNAVQHMINRGVQGVDFIVMNTDAQALSRSRASSVIQLGNTGLGAGAKPEMGRAAAEEARERIADALRGAHMVFITAGMGGGTGTGAAPVVAQIAKEMGILTVGVVSKPFEFEGGKRMRVAEAGSQQLEDHVDSLIVVLNDKLFDVMGDDAEMDKCFQCADDVLNNAVAGIAEIINVDGLVNVDFEDVKTVMGEQGKAMMGTATVAGVDRARLAAEQAVASPLLEGVDLSGARGVLVNITSSRSLRLSETREVMNTIKSYAAEDATVIFGAVYDDAMGDALRVTVVATGLGRAAKKQQSAPMTLLRTGTDNQPVSAVSHGYAPAQHVSTADYGALDTPAVWRNSRETAASHVQALQEKGVDTYDIPAFLRKQAD
# notes: recombinant BcFtsZ (BCAL3457) from pET-28a, N-terminal histidine tag removed with PreScission protease
# Substrate: Nc1nc2c(ncn2[C@@H]2O[C@H](COP(=O)(O)OP(=O)(O)OP(=O)(O)O)[C@@H](O)[C@H]2O)c(=O)[nH]1
# Assay: steady-state kinetics, PK/LDH coupled GTPase assay (Km)
# Format: biochemical, Burkholderia cenocepacia
# Conditions: Mg2+ GTP binding site
protein,measurement,value
B1,Km,6.4 ± 0.8 µM
